# In the nanobody polyreactivity screen of Harvey et al. (2022):
# Test: yeast display, Sf9 membrane polyspecificity reagent, FACS + sequencing; frameworks hold sequencing errors
# Procedure, shortened: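 Nanobodies came from a synthetic yeast display library in Saccharomyces cerevisiae BJ5465, induced with galactose for 36–48 hours and stained for 1 hour at 4 °C with 10% biotinylated, detergent-solubilized Sf9 membrane reagent. Cells were enriched on streptavidin microbeads and then FACS-sorted, with low and high (top ~1%) gates set on anti-HA fluorescence for expression and streptavidin fluorescence for reagent binding. Each polyreactivity label reflects the gate a clone came from. Genes were amplified by colony PCR, sequenced by MiSeq 2 × 250 and filtered by CDR length.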
row,Sequence,polyreactivity (PSR sort gate)
1,QGQLVESGGCLVQEGGSLRLSCAASGRIFWYYTMGWYRQAPGKERELVATIRSGDRKNYADSVKGRFTISLDNAKNTVYLQMNSLKPDDTAVYYCAATRALVNTHRYYYWGQGTQVTVSS,high polyreactivity
2,QGQLVESGGGFVQAGGSLRLSCAASGSTFRYYTMGWYRQAPGKEREFVAAITSSGTSTYYADSVKGRFTISRDIAKNTVYLQMNSLKPEDTAVYYCNKVGIYGSRSRYDSWGQGTQVTVSS,high polyreactivity
3,QGQLVESGGGLDQAGGSLRLSCAASGSTFPVYAMGLYRQAPGKDRELVAAITSGVSTNYADSVKGRFTISRDNAKNTVYVQKNSMKPEDTAVYYCAKEFGLLPIRDYYWGQGTQVTESS,low polyreactivity
4,QGQLVESGGGLLQAGGSLRLSCAASGRTFPYNALGWYRQAPGKERELVAAMSSGTRTDSADAVKGRFTISRDTAKNTVYLQMNSLKPEATAVYYWAADDYHYLWRADGFDYWGQGTQVTVSS,high polyreactivity
5,QGQLVESGGGLVHAGGSLRLSCAASGSIFTGNAMGWYIQAPGKEREMVAAITGRGGNTYYADSVKGRYTISRDNAKNTVYLQMMSLKPEETAGYYCAKVFFHTPIVPEYDYWGQGSQVTVSS,low polyreactivity
6,QGQLVESGGGLVQAGGRLRLSCAATGLTFAKNAMGWYRQAPGKEREMFAAIRSGDDTTYADSVKGRFTISRDNAKNTVYLQMNSLKPEDSAEYYCAARYYRTWDGRFGYWGQGTQVTVSS,high polyreactivity
7,QGQLVESGGGLVQAGGSLLLSCAASGRIFTGKAMGWSRQAPGKERELGAAIDWSGGSTYYADSVKGRFTISRDNAKNTVYLQMNSLKPEDTAVYYCNATYSNSAVGYLGFDYWGQGTQVTVSS,low polyreactivity
8,QGQLVESGGGLVQAGGSLRFSCADSGRIFHRYVMGWYRQAPGKERELVAAISWSSGSTSADSVKGRFTISRDNAKNTDYLQMNSLKPEDTAVYYCNASYNGVPARYDYWGQGTQVTVSS,low polyreactivity
9,QGQLVESGGGLVQAGGSLRIICAASANNFAKYAMGRYRQAPGKERELVAAISKRGGSTYYADSVKGRFTISRDNAKNTVYLQMNSLKPEETAVYYCAQRVLNYQRYDYWGQGTQVTVSS,high polyreactivity
10,QGQLVESGGGLVQAGGSLRITCAASGITFPYNAMGWYRQAPGTERELVAAITRSGASTYYADSVKGRFTISRDNSKNTVYVQMNSLKPEDTAVYYCAAKVIGRPRPYYYWGQGTQVTVSS,high polyreactivity
11,QGQLVESGGGLVQAGGSLRLSCAASGFTFARNVMGWSRQAPGTERELVAAITTSGGSTYYADSVKGRFTISRDNAKNTVYLQMNSLKPEDTAVYYCARRVYGYYIPYNYWGQGTQVTVSS,high polyreactivity
12,QGQLVESGGGLVQAGGSLRLSCAASGGIFKAYAMGWYRQAPGQERELVAVITIGGRTTYADSVKGRFTISRDNAKNTVYLQMNSLKPEDTAVYYCAKTNYNWLSTAEHDYWGQGTQVTVSS,low polyreactivity
13,QGQLVESGGGLVQAGGSLRLSCAASGGIFSDYAMGWYIQEPGKEREFVAAISVRGTSTDYADSVKGRFTISRDNAKNTVYLQMNSLKPEDTAVYYCNAQGAPQVRDVLPYEFDYWGQGTQVTVSS,low polyreactivity
14,QGQLVESGGGLVQAGGSLRLSCAASGGIFVGYPMGWYRQAPGKERELVASSDVRVGSTYYGDSVKGRFTISRDKAKNTVYLQMTSLKPEDTAVYSCEAGGRAVRIYWGYYRTSYDYWGLGTQVTVSS,low polyreactivity
15,QGQLVESGGGLVQAGGSLRLSCAASGGTFRAYVMGWSRQAPGKERELVADISRSGTRTYYADSVKGRFTISRDNAKNTVYLQMNSLKPEDTAVYYCAAAAKSWLFEYWGQGTQVTVSS,high polyreactivity
16,QGQLVESGGGLVQAGGSLRLSCAASGITVGVYARGRYRQEPGKEREFVADIDRTGGSTYAVSVKGRFTISRDIAKNTVYLQMNSLKPEDTAVYYCAAGWGFRFYYWYWGQGTQVTVSS,high polyreactivity
17,QGQLVESGGGLVQAGGSLRLSCAASGLTLYYYAMGWYIQAPGKERELVAAINRGGSTYYADSVKGRFTISRDNAKNTVYLQMNSLKPEDTAVYYCAVDYGVRDLTYYYWGQGTQVTVSS,low polyreactivity
18,QGQLVESGGGLVQAGGSLRLSCAASGNIFNRYGMGWSRQAPGKERELVAAISSSGTSPYYADSVKGRFTISRDYAKNTVYLQMNSLKPEDTAVYYCAASYPTRAWEYDYWGQGTQVTVSS,high polyreactivity
19,QGQLVESGGGLVQAGGSLRLSCAASGNTFGKNAMGWYRQAPGKERELVAAIRSSGGSTYYADSVKGRFTISRDNAKNTVYLQMNSLKPEDSAVYYCNADVIRQTDGYDYWGQGTLVTVSS,high polyreactivity
20,QGQLVESGGGLVQAGGSLRLSCAASGRIFPAYGMAWYRQAPGQERELVATIDNGGGTYYADSVKGRFTISRDNAKNTVYLQMNSLKPEDTAVYYCARDRHVRWGLKMDFWGQGTQVTVSS,low polyreactivity
21,QGQLVESGGGLVQAGGSLRLSCAASGRIFRIYAMGWYRQAPGKERELVARITYSGGSTYYADSVKGRFTISRDNAKNTVYLQMNSLKPEDTAVYYCAADWLGYQYGYWGQGTQVTVSW,low polyreactivity
22,QGQLVESGGGLVQAGGSLRLSCAASGRTFFNNVMGWYRQAPGKERELVAAISKSGTRTYYADSVKGRFTISRDNAKNTVYLQMNSVKPEDTAVYYCATGQYLRTSRYYYWGHGTQVTVSS,high polyreactivity

row,Sequence,polyreactivity (PSR sort gate)
1,QGQLVESGGGLVQAGGSLRLSCAASGRTFYANAMGWYRQAPGKERELVAAISTGGDGTYYADSVKGRFTISRDNAKNTVYLQMNSLKPEDAAVYYCAVRHRASGILYDYWGQGTQVTVSS,low polyreactivity
2,QGQLVESGGGLVQAGGSLRLSCAASGRTFYRNAMGWYRQAPGKEREFVAAITSIGGATYYADSVKGRFTISRDNAKNTVDLQMNSLKPEDTAVYYCAAKGFRYPEYDYWGQGTQVTVSS,low polyreactivity
3,QGQLVESGGGLVQAGGSLRLSCAASGSIFNTYAMGWYRQAPGKEREFVASISRSGGSTRYADSVKGRFTISRDNAKNTVYLQMNSLKPEDTEVYYSAARVPRGHVTYDSWGQGTKVTVSS,high polyreactivity
4,QGQLVESGGGLVQAGGSLRLSCAASGSIFPYYAMGWYRQAHGKERELVAVITTSGGRTYYADSVKGRFTISRDNAKNTVYLQMNSLKPADTAVYYCATDVRQGSGWRYYYWGQGTQVTVSS,high polyreactivity
5,QGQLVESGGGLVQAGGSLRLSCAASGSIFSLNSMGWYRQAPGKERELVAASGGGSTYYADSVKGRFTISRDNAKNTVYLQMNSLKTEDTAVYYCAGDQSFDYDFSHYYYWGQGTQVTVSS,low polyreactivity
6,QGQLVESGGGLVQAGGSLRLSCAASGSIFVINAMGWYRQAPGKERELVAAIDWGGDTTYYADSVKGRFTISRDNAKNTVYLQMNSLKPEDSAVYYCAAGYYLRRYYYWGQGTQVTVSS,high polyreactivity
7,QGQLVESGGGLVQAGGSLRLSCAASGSIFVYNVMGWYRQEPGKATELVADISKTAGRTYSADSVKGRFTISRDNAKNTVYLQINSLKPEDTAVSYCAVGNKRDAYYQYSSYGYWGQGTQVTVSS,low polyreactivity
8,QGQLVESGGGLVQAGGSLRLSCAASGSIFYINAMGWYRQAPGKERELVASISGGGGSTYYADSVKGRFTLSRDNAKNTVYLQMNSLKPEDTAVYYCNTVSRKDYDYWGQGTQVTVSS,high polyreactivity
9,QGQLVESGGGLVQAGGSLRLSCAASGSIYPLNVMGWYRQSPGKERELVATISKSGGSTYYADSVKGRITISRDNAKNTVYLQMNSLKPEDTGVYNCTVGRYVVGGTSVGYWGQGTQVSVSS,low polyreactivity
10,QGQLVESGGGLVQAGGSLRLSCAASGYIFDWYAMGWYRQAPGKEREFVAAISGSDGSTYYADSVKGRFTISRDNAKNTVYLQMNSLKPEDSAVYYCAADPYYGEMEYWGQGTQVTVSS,low polyreactivity
11,QGQLVESGGGLVQAGGSLRLSCAASGYIFLTNAMGWSREAPGKERVLVAAISWRGGRTYYADSVKGRFTISRDNAKNTVYLQMNSLKPEDTAVYYCNAVCEYYGKSDYWGQGTQVTVSS,low polyreactivity
12,QGQLVESGGGLVQAGGSLRLSCAASGYTFYANAMGWYRQAPGNEREFVASITWSGGSTYYADSVKGRFTLSRDNAKNTVYLQMNSLKPEDTAVSDCAAESWFKYDYWGQGTQVTVSS,low polyreactivity
13,QGQLVESGGGLVQAGGSLRLSCDASGRIFRKYDMGWYRQAPGKERELVAAISGTGITYYADSVKGRFTISRDNANNTVYLQMNSLKPEDTAVYYCARGSKPRALSWADPSATSIYDYWGQGTQVTVSS,low polyreactivity
14,QGQLVESGGGLVQAGGSLRLSCPASGRIFNTYAMGWYRQAPGKERELVAAINWSGGRTYYADSVKGRFTISRDNAKNTVYLQMNSLKPEDSAVYYCKARGRRRVPEFDYWGQGSQVTVSS,high polyreactivity
15,QGQLVESGGGLVQAGGSLRLSCPASGRIYVFYAMGRYRQATGKEREFVATISYSGDTTYYADSVKGRFTISRDNAKNTVYLQMNSLKPEDTAVYYCAADLVPSYYYVPMGYDSWGQGTQVTVSS,low polyreactivity
16,QGQLVESGGGLVQAGGSLRLSGAASGRTFRCNAMGWYRQAPGKERELVAAITSSGGRTYYADSVNGRFTISRDNAKNTVYLQMNSLKPEDTAVYYCAADAYQRGSGRYYEYDYWGQGTQVTVSS,high polyreactivity
17,QGQLVESGGGLVQAGGSLRLSSAASGNTFYGYAMGWYRQSPGKERELVASITLSGDSTYYADSVKGRFTISRDNAKNTVYLQMNSLKPEDTAVYYWAGVYTYPLGYYHYTYDYWGQGTQVTVSS,low polyreactivity
18,QGQLVESGGGLVQAGGSLSLSCAASGSIFPVYAMGWYRQAPGTEREFVARIRFSGGRTYYADSVQGRFTISRDNAKNTVYLQMNSLKPEDTAVYYCAKAQYRGRYGYWGQGTQVTVSS,high polyreactivity
19,QGQLVESGGGLVQAGGSLSLSCAASRFTFQRYAMGWDRQAPGKERELVAAISVSGGRTYYADSVKGRFTISRDNAKNSVYLQMNSLKPEDTAVYYCAAEGFLGWYYYWGQGNQVTVSS,high polyreactivity
20,QGQLVESGGGLVQAGGSRRLSCAASGRIFFYYAMGGYRQGPGQARELVAAISQSGASTYYADSVKGRFTISRDTAKNTVYLQMNSLKPEDTAVYYCNHKPYWYRDYYYWGQGTQVTVSS,high polyreactivity
21,QGQLVESGPVLVQAGCSLRLSSAASGYTFGWYAMGWYRQAPGKLRELVAGISSAGSTNYADSVNGRFTISRDNANINVYLQMNSLKPEDTAVYYCAAEVRYWFLADDYWGQGTQVTVSS,high polyreactivity
